Measurements published in paper PMC9561379.

Experiments:
[1] = target: asymmetric nucleosome WT/MB (WT dimer in the upstream position, MB-modified H2A/H2B S112C dimer downstream) (Xenopus) (UniProt P06897)
[2] = target: asymmetric nucleosome MB/WT (MB-modified H2A/H2B S112C dimer in the upstream position, WT dimer downstream) (Xenopus) (UniProt P06897)
[3] = target: H2B S112C-MB nucleosome (MB-modified H2B S112C) (Xenopus)
[4] = target: H2A G2C-MB nucleosome (100% MB-modified H2A G2C, both H2A N-tails biotinylated) (Xenopus); assay: native gel or EMSA; biotin-modified or unmodified nucleosomes (radiolabelled 601 DNA) incubated with streptavidin in TE buffer for 10 min at room temperature, run on 6% native PAGE (legend of Figure 2B: 5%); mobility shift
[5] = target: asymmetric nucleosome WT/MB (WT dimer in the upstream position, MB-modified H2A/H2B S112C dimer downstream) (Xenopus) (UniProt P06897); assay: native gel or EMSA; asymmetrically modified nucleosomes on Cy5-labelled DNA incubated with or without streptavidin, 5% acrylamide nucleoprotein gels, imaged by fluorography
[6] = target: asymmetric nucleosome MB/WT (MB-modified H2A/H2B S112C dimer in the upstream position, WT dimer downstream) (Xenopus) (UniProt P06897); assay: as above

fraction of RSC-mobilized, streptavidin-bound nucleosomes protected from Hind III digestion at the downstream end (about 40% without streptavidin) [1]	fraction of RSC-mobilized, streptavidin-bound nucleosomes protected from Hind III digestion at the downstream end (about 40% without streptavidin) [2]	rate of HhaI digestion during RSC remodeling, nucleosomes with one streptavidin bound (1SA) against unbound nucleosomes [3]	rate of HhaI digestion during RSC remodeling, nucleosomes with two streptavidins bound (2SA) against the unbound control [3]	stoichiometry N (streptavidin per nucleosome) [4]	stoichiometry N (streptavidin per nucleosome) [5]	stoichiometry N (streptavidin per nucleosome) [6]	Substance
20%	80%	2 fold slower	20 fold slower				RSC (Remodels the Structure of Chromatin) complex, yeast (from UniProt P32597 1-1359; Q06168 1-426; Q06488 1-889; Q02206 1-625; Q07979 1-502; Q12406 1-477; Q05123 1-467)
				1	1	1	streptavidin (from UniProt P22629 25-183) (natural protein)
